The record followed here is patent US20070016969A1.

In the assay the target is Bovine thrombin (Sigma) (bovine) (UniProt P00735). Briefly: cell-based or functional assay.

Take “commercially available nature hirudin (Sigma) (from UniProt P01050 1-65)”: the amount at which there is almost no coagulation (plasma coagulation, A405) worked out at 0.16 pmol and the amount needed for the anti-coagulation reaction at the A405 reading of 0.05 is 0.52 pmol.

With “hirudin encoded by the full-length DNA fragment Hi (SEQ ID NO: 17), expressed from pE-αLA-Hi in NMuMG mammary gland cells (from UniProt P01050 1-65)”, the amount of culture medium at which there is no coagulation (plasma coagulation, A405) was 10 µL; the amount of culture medium needed for the anti-coagulation reaction at the A405 reading of 0.05 was 0.95 µL; the amount of homogeneous extract of mammary gland cells at which there is no coagulation (plasma coagulation, A405) was 0.25 mg; the amount of homogeneous extract of mammary gland cells needed for the anti-coagulation reaction at the A405 reading of 0.05 was determined as 0.056 mg.
